According to US20260137799A1, “ANTI-MUC1* ANTIBODY DRUG COMPLEXES AND USES THEREOF” (Minerva Biotechnologies Corporation, priority 2023, published 2026):

T1: PSMGFR N-10 peptide
T1 peptide: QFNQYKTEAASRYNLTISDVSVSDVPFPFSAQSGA

T2: PSMGFR N-30 peptide
T2 peptide: SVSDVPFPFSAQSGA

T3: PSMGFR N-19 C-5 peptide
T3 peptide: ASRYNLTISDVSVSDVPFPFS

T4: PSMGFR peptide
T4 construct: also called PSMGFR 45mer
T4 peptide: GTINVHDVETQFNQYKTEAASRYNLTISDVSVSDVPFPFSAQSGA

T5: PSMGFR C-10 peptide
T5 peptide: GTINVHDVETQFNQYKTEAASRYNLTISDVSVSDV


Tests used:
[1] = test system: T47D xenograft tumors; assay: T47D breast cancer xenograft; type: in vivo, NOD/SCID mice; settings: intraperitoneal; MMAE ADCs 5-10 mg/kg Days 7, 14, 20; deruxtecan/exatecan ADCs 20 mg/kg weekly x7
Procedure: (§1) For breast cancer xenografts, female NOD/SCID mice (weight 18-22 g, 6-8 weeks old, Charles River Laboratories) previously implanted with a 90-day release estrogen pellet (Innovative Research Laboratories) were subcutaneously injected under isoflurane anesthesia (ISOTHESIA, 250 ml (HENRY SCHEIN, NDC: 11695-6776-2) with one million luciferase-positive T47D breast cancer cells expressing low levels of MUC1*(ATCC) or one million luciferase-positive T47D-MUC1* cells overproducing MUC1* using a BD 26G Insulin Syringes with Detachable Needle (Fisher cat: 329652) or BD 28G Lo-Dose U-100 Insulin Syringes (Fisher cat: 329461).
(§2) Tumor volume was measured from bioluminescence images acquired with a Xenogen IVIS-Spectrum system (Perkin Elmer). Mice were injected […] into the scruff of the neck with 150 ul, 30 mg/mL, D-Luciferin (XenoLight™ D-Luciferin Potassium Salt; PerkinElmer P/N 122799), placed under isoflurane anesthesia, and photographed within 10 minutes of the Leciferin injection. Data was expressed graphically as Radiance (photons/sec) as a function of days post-tumor implantation.
(§3) Tumor mass was determined from tumors excised from mice receiving T47D cells on Day 95 and mice receiving T47D-MUC1* cells on Day 96. […]

[2] = test system: NCI-H1975; assay: xCELLigence impedance cytotoxicity, NCI-H1975; type: cell-based, human; settings: xCELLigence; 40-120 hours incubation; read-out: IC50, NCI-H1975
Procedure: (§4) An xCELLigence RTCA MP Instrument (Agilent) was used to assess real-time killing of target cancer cells). In the xCELLigence system, target cancer cells, which are adherent, are plated onto electrode array 96-well plates. Adherent cells insulate the electrode and increase the impedance. The number of adherent cancer cells is directly proportional to impedance. […] Therefore, increasing impedance reflects the growth of the cancer cells and decreasing impedance reflects the killing of the cancer cells.
(§5) Target Cancer cells (Table 9) were seeded onto a multi-electrode well plate at a density of 5000 cells/well (100 μL of a 50,000 cells/mL stock) and incubated for 24 hr in a 37° C./5% CO2 incubator. ADCs were prepared as a 2× solution in corresponding growth media and 100 μL of each concentration was added to target cells. As a positive control (100% cell killing) cells were treated with either 1% triton or 1 μM Taxol instead of ADC. After 40-120 hours incubation in a 37° C./5% CO2 incubator cell killing was assessed. In this assay, impedance is measured in real-time. When the adherent cancer cells are killed and come off the electrode surface, impedance (insulation) decreases.

[3] = test system: T47D-MUC1* xenograft tumors; assay: T47D-MUC1* breast cancer xenograft; type: in vivo, NOD/SCID mice; settings: intraperitoneal; MMAE ADCs 5-10 mg/kg Days 7, 14, 20; deruxtecan/exatecan ADCs 20 mg/kg weekly x7
Procedure: as §1, §2, §3

[4] = test system: HPAFII-MUC1*; assay: PrestoBlue live/dead cell assay, HPAFII-MUC1*; type: cell-based, human; settings: Presto Blue; 72-120 hour incubation
Procedure: (§6) Another method of measuring the killing activity of ADCs against target cancer cells is to use the PrestoBlue live/dead cell assay (ThermoFisher). Target cancer cells were seeded in a black-walled, clear-bottom 96-well tissue culture plate at a density of 5000 cells/well (100 μL of a 50,000 cells/mL stock) and incubated overnight in a 37° C./5% CO2 incubator. ADCs were prepared as a 2× solution in corresponding cancer cell growth media and 100 μL of each concentration was added to target cancer cells. As a positive control (100% killing) cancer cells were treated with 1 μM Taxol instead of ADC. After 72 hour-120 hour incubation in a 37° C./5% CO2 incubator, cell viability was measure by fluorescence using the PrestoBlue HS assay (ThermoFisher). Briefly, after the incubation period, 20 μL of PrestoBlue HS solution was added. Fluorescence (Ex 560 nm/Em 590 nm) was recorded after 30-90 min. incubation using a Tecan plate reader. Percentage viability was determined by PrestoBlue HS staining and normalized to 1 μM taxol treated cells.
(§7) The normalized fluorescence values were imported into the graph program, Sigma Plot, data plotted as ADC concentration versus normalized fluorescence signal and curve fitted using a four-parameter Hill equation: f=y0+a*x^b/(c^b+x^b) to calculate IC50 values. IC50 values for the ADCs were generally consistent between the xCELLigence and Presto Blue assays.

[5] = test system: T47D-MUC1*; assay: xCELLigence impedance cytotoxicity, T47D-MUC1*; type: cell-based, human; settings: xCELLigence; 40-120 hours incubation; read-out: IC50, T47D-MUC1*
Procedure: as §4, §5

[6] = test system: H1975; assay: PrestoBlue live/dead cell assay, H1975; type: cell-based, human; settings: Presto Blue; 72-120 hour incubation
Procedure: as §6, §7

[7] = test system: HPAFII; assay: PrestoBlue live/dead cell assay, HPAFII; type: cell-based, human; settings: Presto Blue; 72-120 hour incubation
Procedure: as §6, §7

[8] = test system: T47D; assay: xCELLigence impedance cytotoxicity, T47D; type: cell-based, human; settings: xCELLigence; 40-120 hours incubation; read-out: IC50, T47D
Procedure: as §4, §5

[9] = test system: T47D; assay: PrestoBlue live/dead cell assay, T47D; type: cell-based, human; settings: Presto Blue; 72-120 hour incubation
Procedure: as §6, §7

[10] = test system: T47D-MUC1*; assay: PrestoBlue live/dead cell assay, T47D-MUC1*; type: cell-based, human; settings: Presto Blue; 72-120 hour incubation
Procedure: as §6, §7

[11] = biological target: T1, PSMGFR N-10 peptide; assay: ELISA on PSMGFR N-10 peptide; Table 4 column 'Binds N-10', grade
[12] = biological target: T2, PSMGFR N-30 peptide; assay: peptide binding assay (FIGS. 2A, 2B)
[13] = biological target: T3, PSMGFR N-19 C-5 peptide; assay: peptide binding assay (FIGS. 2A, 2B)
[14] = biological target: T4, PSMGFR peptide; assay: peptide binding assay (FIGS. 1A, 1B)
[15] = biological target: T5, PSMGFR C-10 peptide; assay: ELISA on PSMGFR C-10 peptide; Table 4 grade
[16] = biological target: MUC1* on cancer cells and tumour sections (UniProt P15941); assay: IHC with C2 on untreated HPAFII-wt pancreatic tumors excised from mice
[17] = biological target: MUC1* on cancer cells and tumour sections (UniProt P15941); assay: IHC with C2 on untreated T47D-wt breast tumors excised from mice
[18] = biological target: MUC1* on cancer cells and tumour sections (UniProt P15941); assay: IHC with C2 on untreated H1975-wt lung tumors excised from mice

Molecule | growth of T47D xenograft tumors [1] | IC50 [2] [nM] | growth of T47D-MUC1* xenograft tumors [3] | IC50 [4] [nM] | IC50 [5] [nM] | IC50 [6] [nM] | IC50 [7] [nM] | IC50 [8] [nM] | IC50 [9] [nM] | IC50 [10] [nM] | binding result [11] | binding result [12] | binding result [13] | binding result [14] | binding result [15] | H-score [16] | H-score [17] | H-score [18]
C2 MC-VC-PAB MMAE (conjugate, listed as Mus sp., MC-VC-PAB-MMAE, ADC: anti-MUC1* antibody C2 conjugated via MC-VC-PAB linker to MMAE) heavy: EVQLEESGGGLVKPGGSLKLSCAASGFTFSGYAMSWVRQTPEKRLEWVATISSGGTYIYYPDSVKGRFTISRDNAKNTLYLQMSSLRSEDTAMYYCARLGGDNYYEYFDVWGAGTTVTVSSAKTTPPSVYAKTTPPSVYPLAPGSAAQTNSMVTLGCLVKGYFPEPVTVTWNSGSLSSGVHTFPAVLQSDLYTLSSSVTVPSSTWPSETVTCNVAHPASSTKVDKKIVPRDCGCKPCICTVPEVSSVFIFPPKPKDVLTITLTPKVTCVVVDISKDDPEVQFSWFVDDVEVHTAQTQPREEQFNSTFRSVSELPIMHQDWLNGKEFKCRVNSAAFPAPIEKTISKTKGRPKAPQVYTIPPPKEQMAKDKVSLTCMITDFFPEDITVEWQWNGQPAENYKNTQPIMDTDGSYFVYSKLNVQKSNWEAGNTFTCSVLHEGLHNHHTEKSLSHSPGK light: DIVITQSTASLGVSLGQRATISCRASKSVSTSGYSYMHWYQQRPGQPPKLLIYLASNLESGVPARFSGSGSGTDFTLNIHPVEEEDAATYYCQHSRELPFTFGGGTKLEIKRADAAPTVSADAAPTVSIFPPSSEQLTSGGASVVCFLNNFYPKDINVKWKIDGSERQNGVLNSWTDQDSKDSTYSMSSTLTLTKDEYERHNSYTCEATHKTSTSPIVKSFNRNEC | inhibit the growth | 23 | inhibit the growth | 63 | 1.8 | 89 | 112 | 156 | 187 | 2.6 | – | – | – | – | – | – | – | –
anti-MUC1* antibody 3C2B1 (antibody, V domains shown, Humanised form is m27; also called 32CB1) VH: EVMLVESGGGLVKPGGSLKLSCAASGITFSTYTMSWVRQTPEKRLEWVATISTGGDKTYYSDSVKGRFTISRDNAKNNLYLQMSSLRSEDTALYYCARGTTAMYYYAMDYWGQGTSVTVSS VL: DIVLTQSPASLAVSLGQRATISCRASKSISTSDYNYIHWYQQKPGQPPKLLIYLASNLESGVPARFSGSGSGTDFTLNIHPVEEEDAATYYCQHSRELPLTFGAGTKLELK | – | – | – | – | – | – | – | – | – | – | binds | binds | binds | binds | no binding | – | – | –
anti-MUC1* antibody C2 (antibody, Monoclonal antibody raised against the PSMGFR peptide; also called mAb C2; IgG1 C2 antibody) VH: EVQLEESGGGLVKPGGSLKLSCAASGFTFSGYAMSWVRQTPEKRLEWVATISSGGTYIYYPDSVKGRFTISRDNAKNTLYLQMSSLRSEDTAMYYCARLGGDNYYEYFDVWGAGTTVTVSSAKTTPPSVYPLAPGSAAQTNSMVTLGCLVKGYFPEPVTVTWNSGSLSSGVHTFPAVLQSDLYTLSSSVTVPSSTWPSETVTCNVAHPASSTKVDKKIVPRDCGCKPCICTVPEVSSVFIFPPKPKDVLTITLTPKVTCVVVDISKDDPEVQFSWFVDDVEVHTAQTQPREEQFNSTFRSVSELPIMHQDWLNGKEFKCRVNSAAFPAPIEKTISKTKGRPKAPQVYTIPPPKEQMAKDKVSLTCMITDFFPEDITVEWQWNGQPAENYKNTQPIMDTDGSYFVYSKLNVQKSNWEAGNTFTCSVLHEGLHNHHTEKSLSHSPGK VL: DIVITQSTASLGVSLGQRATISCRASKSVSTSGYSYMHWYQQRPGQPPKLLIYLASNLESGVPARFSGSGSGTDFTLNIHPVEEEDAATYYCQHSRELPFTFGGGTKLEIKRADAAPTVSIFPPSSEQLTSGGASVVCFLNNFYPKDINVKWKIDGSERQNGVLNSWTDQDSKDSTYSMSSTLTLTKDEYERHNSYTCEATHKTSTSPIVKSFNRNEC | – | – | – | – | – | – | – | – | – | – | – | – | – | – | no binding | 220 | 10 | 40
